Reference: patent US20240124586A1

Columns and labels:
[1] = target: human C1Q (human) (UniProt P02745); assay: ELISA, antibody coated on the plate, C1q titrated (the concentration is that of C1q)
[2] = target: human C1Q (human) (UniProt P02745); assay: ELISA, antibody coated on the plate, C1q titrated (axis: [C1q] nM), anti-C1q-HRP detection
[3] = target: human CD3 on CD3+ Jurkat cells (human) (UniProt P07766); assay: FACS bridging of pre-labelled Jurkat (CD3+) and Raji (CD19+) cells mixed 1:1, negative control
Chain of human CD3 on CD3+ Jurkat cells (human) (P07766 23-207, chain 1 of 3): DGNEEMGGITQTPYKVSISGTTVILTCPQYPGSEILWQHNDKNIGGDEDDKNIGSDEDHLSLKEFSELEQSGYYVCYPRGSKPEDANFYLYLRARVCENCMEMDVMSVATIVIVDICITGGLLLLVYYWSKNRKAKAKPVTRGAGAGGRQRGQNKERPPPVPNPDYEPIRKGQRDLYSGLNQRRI
Chain of human CD3 on CD3+ Jurkat cells (human) (P09693 23-182, chain 2 of 3, further chain): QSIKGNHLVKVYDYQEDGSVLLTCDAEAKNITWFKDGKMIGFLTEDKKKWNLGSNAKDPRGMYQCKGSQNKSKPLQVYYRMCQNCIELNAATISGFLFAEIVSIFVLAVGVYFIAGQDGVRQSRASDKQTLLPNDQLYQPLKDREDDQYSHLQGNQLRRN
Chain of human CD3 on CD3+ Jurkat cells (human) (P04234 22-171, chain 3 of 3, further chain): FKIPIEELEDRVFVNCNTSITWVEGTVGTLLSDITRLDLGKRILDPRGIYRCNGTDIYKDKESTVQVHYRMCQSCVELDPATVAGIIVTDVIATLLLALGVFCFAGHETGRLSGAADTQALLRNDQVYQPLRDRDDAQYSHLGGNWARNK

[4] = target: human CD19 on CD19+ B cell lines (Ramos, Raji) (human) (UniProt P15391); assay: as above
Chain of human CD19 on CD19+ B cell lines (Ramos, Raji) (human) (P15391 20-556): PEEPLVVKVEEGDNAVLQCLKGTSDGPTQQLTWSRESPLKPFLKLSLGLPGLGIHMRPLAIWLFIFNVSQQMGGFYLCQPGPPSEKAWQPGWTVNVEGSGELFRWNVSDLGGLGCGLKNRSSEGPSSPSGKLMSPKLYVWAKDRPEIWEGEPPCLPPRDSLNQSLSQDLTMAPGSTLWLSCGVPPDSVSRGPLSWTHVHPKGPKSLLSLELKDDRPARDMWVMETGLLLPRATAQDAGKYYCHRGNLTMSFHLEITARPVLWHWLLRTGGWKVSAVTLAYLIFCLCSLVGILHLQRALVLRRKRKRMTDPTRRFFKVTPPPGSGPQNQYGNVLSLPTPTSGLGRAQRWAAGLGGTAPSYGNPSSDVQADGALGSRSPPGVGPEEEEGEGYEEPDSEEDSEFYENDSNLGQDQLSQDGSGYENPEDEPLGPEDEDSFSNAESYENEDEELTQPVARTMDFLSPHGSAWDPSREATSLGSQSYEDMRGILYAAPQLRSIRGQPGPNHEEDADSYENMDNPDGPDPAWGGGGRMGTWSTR

Chain of human C1Q (human) (P02745 23-245 limits assumed, chain 1 of 3): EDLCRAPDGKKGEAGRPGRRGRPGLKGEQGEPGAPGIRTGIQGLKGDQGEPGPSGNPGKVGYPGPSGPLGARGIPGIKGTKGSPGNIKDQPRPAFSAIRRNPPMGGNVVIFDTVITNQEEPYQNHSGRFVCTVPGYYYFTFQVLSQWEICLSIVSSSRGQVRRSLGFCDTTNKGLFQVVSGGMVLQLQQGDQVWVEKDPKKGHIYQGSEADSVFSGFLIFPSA
Chain of human C1Q (human) (P02746 28-253 limits assumed, chain 2 of 3, further chain): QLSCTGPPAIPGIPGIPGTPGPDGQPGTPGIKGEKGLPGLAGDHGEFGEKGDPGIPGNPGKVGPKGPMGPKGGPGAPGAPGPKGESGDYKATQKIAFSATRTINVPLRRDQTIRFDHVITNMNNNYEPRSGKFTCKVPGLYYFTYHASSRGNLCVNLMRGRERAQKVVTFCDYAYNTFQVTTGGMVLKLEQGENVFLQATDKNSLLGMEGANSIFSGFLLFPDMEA
Chain of human C1Q (human) (P02747 29-245 limits assumed, chain 3 of 3, further chain): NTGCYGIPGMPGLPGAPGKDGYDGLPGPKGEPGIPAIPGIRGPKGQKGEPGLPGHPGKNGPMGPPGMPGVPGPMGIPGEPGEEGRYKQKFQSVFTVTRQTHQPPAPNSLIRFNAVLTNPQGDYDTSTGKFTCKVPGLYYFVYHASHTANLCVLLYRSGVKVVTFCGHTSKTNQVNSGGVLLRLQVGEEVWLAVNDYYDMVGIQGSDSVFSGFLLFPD

Substance | EC50 (read off the curve) [1] | EC50 (read off the curve) [2] | Q2 % (events positive for both the CD3+ and the CD19+ cell label) [3] | Q2 % (events positive for both the CD3+ and the CD19+ cell label) [4]
control human IgG1 antibody | 30 nM | 30 nM |  | 
irrelevant IgG (antibody) |  |  | 4.91% | 4.91%
